Test results as given in paper PMC11194070, “Despite the odds: formation of the SARS-CoV-2 methylation complex” (Nucleic Acids Research, 2024).

Target: T1, nsp10/16 complex (heterodimer of SARS-CoV-2 nsp10 and nsp16) (SARS-CoV-2, UniProt P0DTD1)
T1 construct: also called nsp10/nsp16; nsp10/16 heterodimer
Assay: MST
Conditions: both partners purified

B1: nsp14ExoN, nsp14 without the methyltransferase domain but retaining the exonuclease activity (domain or fragment)
chain: AENVTGLFKDCSKVITGLHPTQAPTHLSVDTKFKTEGLCVDIPGIPKDMTYRRLISMMGFKMNYQVNGYPNMFITREEAIRHVRAWIGFDVEGCHATREAVGTNLPLQLGFSTGVNLVAVPTGYVDTPNNTDFSRVSAKPPPGDQFKHLIPLMYKGLPWNVVRIKIVQMLSDTLKNLSDRVVFVLWAHGFELTSMKYFVKIGPERTCCLCDRRATCFSTASDTYACWHHSIGFDYVYNPFMIDVQQWGFTGNLQSNHDLYCQVHGNAHVASCDAIMTRCLAVHECFVKRVDWTIE
  Kd: 110 ± 130 nM
